Results from patent US20230002493A1 (ORIONIS BIOSCIENCES, published 2023).
Numbering of substitutions follows the chain as printed. Names and notes keep the numbering of the source.

B1: SEQ ID NO: 72 (2LIG189 humanization variant with deamidation and oxidation risk sites removed) (VHH)
VHH: DVQLVESGGGLVQPGGSLRLSCAASGKIFSGNHMGWYRQAPGKQRELVGIITSGGITDYADAVKGRFTISRDNSKNTVYLQMNSLRPEDTAVYYCNVRDRTIWWGQGTLVTVSS
notes: also called 2LIG189 second wave variant
B2: 2LIG189 variant M97I (VHH, not shown: small tags and cut ends)
VHH: B1 VHH with D1Q, V5Q, P14A, H33D, S74A, T77M, V78M, R86K, V97I, L109Q
notes: also called M971 (so in the source)
B3: 2LIG189 variant D33H (VHH, not shown: small tags and cut ends)
VHH: B1 VHH with D1Q, V5Q, P14A, S74A, T77M, V78M, R86K, V97M, L109Q
B4: 2LIG189 variant N32Q (VHH, not shown: small tags and cut ends)
VHH: QVQLQESGGGLVQAGGSLRLSCAASGKIFSGQDMGWYRQAPGKQRELVGIITSGGITDYADAVKGRFTISRDNAKNMMYLQMNSLKPEDTAVYYCNMRDRTIWWGQGTQVTVSS
B5: 2LIG189 variant M97V (VHH, not shown: small tags and cut ends)
VHH: B4 VHH with Q32N, M97V
B6: 2LIG189 variant N32R (VHH, not shown: small tags and cut ends)
VHH: B4 VHH with Q32R
B7: 2LIG189 variant M97L (VHH, not shown: small tags and cut ends)
VHH: B4 VHH with Q32N, M97L
B8: 2LIG99_D55K (VHH)
VHH: QVQLQESGGGLVQAGGSLRLSCTASGTIFSINRMDWFRQAPGKQRELVALITSKGTPAYADSAKGRFTISRDNTKKTVSLQMNSLKPEDTAVYYCHVSSGVYNYWGQGTQVTVSS
B9: 2LIG99_OPT1 (VHH)
VHH: B8 VHH with Q1D, Q5V, A14P, K54D, T74S, K86R, Q110L
B10: P-1664: 2LIG99_OPT6 (Q1D_Q5V_A14P_T23A_A63V_T74S_K76N_S79Y_K86R_Q110L) (VHH)
VHH: DVQLVESGGGLVQPGGSLRLSCAASGTIFSINRMDWFRQAPGKQRELVALITSDGTPAYADSVKGRFTISRDNSKNTVYLQMNSLRPEDTAVYYCHVSSGVYNYWGQGTLVTVSS
notes: not shown: C-terminal His-tag
B11: 2LIG99_D55T (VHH)
VHH: B8 VHH with K54T
B12: 2LIG99_OPT4 (VHH)
VHH: B10 VHH with A23T, V63A, Y79S
B13: 2LIG99_OPT5 (VHH)
VHH: B10 VHH with A23T, V63A, N76K
B14: P-1660: 2LIG99_OPT2 (Q1D_Q5V_A14P_T23A_T74S_K86R_Q110L) (VHH)
VHH: B10 VHH with V63A, N76K, Y79S
notes: not shown: C-terminal His-tag
B15: 2LIG99_G56R (VHH)
VHH: B8 VHH with K54D, G55R
B16: 2LIG189 VHH (VHH, not shown: small tags and cut ends)
VHH: B4 VHH with Q32N
notes: Parental PD-L1 VHH; stands here as the molecule on which the mutations are counted; also called wild-type 2LIG189
B17: 2LIG189_OPT_N32R_M97I (VHH)
VHH: B1 VHH with N32R, H33D, V97I
B18: 2LIG189_OPT_D33H (VHH)
VHH: B1 VHH with V97M
B19: 2LIG189_OPT_N32R_M97V (VHH)
VHH: B1 VHH with N32R, H33D
B20: SEQ ID NO: 73 (2LIG189 humanization variant with deamidation and oxidation risk sites removed) (VHH)
VHH: B1 VHH with V97I
notes: as for B1
B21: 2LIG189_OPT_N32R (VHH)
VHH: B1 VHH with N32R, H33D, V97M
B22: P-1665: 2LIG99_D54G (VHH)
VHH: B8 VHH with K54G
notes: not shown: C-terminal His-tag

Biological target: T1, recombinant PD-L1 extracellular domain fused to the mouse IgG1 Fc domain (SinoBiologicals) (human; mouse, UniProt Q9NZQ7 19-238)
T1 construct: extracellular domain; also called human PD-L1-mouse Fc; PD-L1-mouse Fc protein; not shown: mouse IgG1 Fc domain
T1 sequence (Q9NZQ7 19-238): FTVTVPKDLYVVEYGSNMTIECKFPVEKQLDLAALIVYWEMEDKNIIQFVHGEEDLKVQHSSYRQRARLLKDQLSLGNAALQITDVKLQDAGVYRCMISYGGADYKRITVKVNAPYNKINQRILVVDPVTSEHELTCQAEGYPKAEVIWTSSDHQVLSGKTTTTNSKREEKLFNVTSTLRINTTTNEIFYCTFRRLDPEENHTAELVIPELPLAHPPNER
Assay: BLI as described above; reference not named

With B1 the “fold increase in affinity” value was 40 fold.

Biological target: T1, recombinant PD-L1 extracellular domain …
Assay: BLI as in Example 1; reference not named, taken as parental 2LIG189
Description: (§1) Affinities of resulting variants were measured using the bio-layer interferometry technology on an Octet Red 96 instrument (ForteBio). In brief, recombinant PD-L1 extracellular domain fused to the mouse IgG1 Fc domain (SinoBiologicals) was immobilized on anti-murine IgG quantitation (AMQ) biosensors (ForteBio). Loaded sensors were incubated with a serial dilution of PD-L1 VHH variant, association and dissociation monitored and kinetic parameters were calculated using the Octet Data Analysis software v10 (ForteBio).
(§2) The aspartic acid at position 1 was included to avoid the risk of pyroglutamate formation. […] Resulting mutants were purified and affinities measured as described in Example 1.

B2 and B3 cannot be ordered by “fold increase in affinity” value: at least 2 fold for the first, at least 2 fold for the second.

B4 and B5 cannot be ordered by “fold increase in affinity” value: at least 2 fold for the first, at least 2 fold for the second.

B6 and B7 cannot be ordered by “fold increase in affinity” value: at least 2 fold for the first, at least 2 fold for the second.

Biological target: T1, recombinant PD-L1 extracellular domain …
Assay: BLI (Octet Red 96); ratio of the printed KDs, 2LIG99 over variant
Description: as §1

Point of comparison: B9, “Ratio KD” value 0.35. Against it:
- B8 — higher, 0.61
- B10 — lower, 0.03
- B11 — lower, 0.19
- B12 — higher, 0.62
- B13 — higher, 2.27
- B14 — lower, 0.19
- B15 — lower, 0.28

Biological target: T1, recombinant PD-L1 extracellular domain …
Assay: BLI (Octet Red 96); ratio of the printed KDs, variant over 2LIG189
Description: as §1, §2

Point of comparison: B2, “Ratio KD” value 0.01. Against it:
- B3 — higher, 0.47
- B4 — higher, 0.16
- B5 — the same, 0.01
- B7 — the same, 0.01

Biological target: T1, recombinant PD-L1 extracellular domain …
Assay: BLI (Octet Red 96), PD-L1-mouse IgG1 Fc on AMQ biosensors, VHH dilution series
Description: as §1

Point of comparison: B8, Kd 459 pM. Against it:
- B9 — 1.7-fold higher, 794 pM
- B10 — 22-fold higher, 10300 pM
- B11 — 3.2-fold higher, 1480 pM
- B12 — within 1.5-fold, 452 pM
- B13 — 3.7-fold lower, 124 pM
- B14 — 3.2-fold higher, 1480 pM
- B15 — 2.2-fold higher, 1010 pM

Point of comparison: B9, koff 0.000704 s⁻¹. Against it:
- B8 — within 1.5-fold, 0.0007 s⁻¹
- B10 — 1.8-fold higher, 0.00124 s⁻¹
- B11 — 1.6-fold lower, 0.000436 s⁻¹
- B12 — 2.3-fold lower, 0.000304 s⁻¹
- B13 — 9.3-fold lower, 7.55e-05 s⁻¹
- B14 — within 1.5-fold, 0.000658 s⁻¹
- B15 — within 1.5-fold, 0.000761 s⁻¹

Point of comparison: B9, kon 886000 M⁻¹ s⁻¹. Against it:
- B8 — 1.7-fold higher, 1.53e+06 M⁻¹ s⁻¹
- B10 — 7.3-fold lower, 121000 M⁻¹ s⁻¹
- B11 — 3-fold lower, 295000 M⁻¹ s⁻¹
- B12 — within 1.5-fold, 671000 M⁻¹ s⁻¹
- B13 — within 1.5-fold, 607000 M⁻¹ s⁻¹
- B14 — 2-fold lower, 445000 M⁻¹ s⁻¹
- B15 — within 1.5-fold, 753000 M⁻¹ s⁻¹

Biological target: T1, recombinant PD-L1 extracellular domain …
Assay: as above
Remark: another data set of the same source
Description: as §1, §2

Point of comparison: B3, Kd 372 pM. Against it:
- B16 — 2.1-fold higher, 791 pM
- B2 — 50-fold lower, 7.41 pM
- B4 — 3-fold lower, 125 pM
- B5 — 62-fold lower, 5.99 pM
- B6 — lower, < 1 pM
- B7 — 32-fold lower, 11.5 pM

Point of comparison: B4, koff 8.84e-06 s⁻¹. Against it:
- B16 — 17-fold higher, 0.000148 s⁻¹
- B2 — 26-fold lower, 3.45e-07 s⁻¹
- B3 — 18-fold higher, 0.000157 s⁻¹
- B5 — 23-fold lower, 3.81e-07 s⁻¹
- B6 — lower, < 1e-07 s⁻¹
- B7 — 18-fold lower, 4.88e-07 s⁻¹

Point of comparison: B4, kon 70500 M⁻¹ s⁻¹. Against it:
- B16 — 2.7-fold higher, 187000 M⁻¹ s⁻¹
- B2 — 1.5-fold lower, 46500 M⁻¹ s⁻¹
- B3 — 6-fold higher, 421000 M⁻¹ s⁻¹
- B5 — within 1.5-fold, 63700 M⁻¹ s⁻¹
- B6 — 5-fold higher, 351000 M⁻¹ s⁻¹
- B7 — 1.7-fold lower, 42500 M⁻¹ s⁻¹

Biological target: T1, recombinant PD-L1 extracellular domain …
Assay: BLI (Octet), PD-L1-mouse Fc on the sensor, VHH dilution series, as described above
Description: as §1

Point of comparison: B17, Kd 2320 pM. Against it:
- B16 — 2.3-fold higher, 5410 pM
- B18 — 7.2-fold lower, 324 pM
- B19 — within 1.5-fold, 3380 pM
- B1 — 16-fold lower, 144 pM
- B20 — 4.2-fold lower, 555 pM
- B21 — within 1.5-fold, 1940 pM

Point of comparison: B17, koff 0.000457 s⁻¹. Against it:
- B16 — 2.9-fold higher, 0.00131 s⁻¹
- B18 — 3.2-fold lower, 0.000145 s⁻¹
- B19 — within 1.5-fold, 0.00056 s⁻¹
- B1 — 5.9-fold lower, 7.71e-05 s⁻¹
- B20 — within 1.5-fold, 0.000329 s⁻¹
- B21 — 1.6-fold higher, 0.000731 s⁻¹

Point of comparison: B20, kon 593000 M⁻¹ s⁻¹. Against it:
- B16 — 2.4-fold lower, 243000 M⁻¹ s⁻¹
- B17 — 3-fold lower, 197000 M⁻¹ s⁻¹
- B18 — within 1.5-fold, 446000 M⁻¹ s⁻¹
- B19 — 3.6-fold lower, 166000 M⁻¹ s⁻¹
- B1 — within 1.5-fold, 536000 M⁻¹ s⁻¹
- B21 — 1.6-fold lower, 377000 M⁻¹ s⁻¹

Biological target: T1, recombinant PD-L1 extracellular domain …
Assay: BLI (Octet Red 96), PD-L1-mouse IgG1 Fc on AMQ biosensors, VHH dilution series; KD and kdis printed ND
Description: as §1

Work on B22 yielded a kon of 1.28e+06 M⁻¹ s⁻¹.
